# Test results published in publication PMC13557712, “Nim1-related kinases regulate septin organization and cytokinesis by modulating Hof1 at the cell division site” (eLife, 2026).
# T1: GST-Hof1-N-terminus (1–350 aa) (S. cerevisiae, UniProt Q05080 1-350)
# T1 construct: Hof1, S. cerevisiae, N-terminal fragment with the F-BAR domain, residues 1-350, amplified from genomic DNA and cloned into pGEX-5X1; also called GST-Hof1^F-BAR; GST-Hof1^(N (1–350)); source: E. coli BL21-DE3, purified on glutathione Sepharose 4B and kept on the resin; not shown: GST, N-terminal, kept
# T1 sequence (looked up): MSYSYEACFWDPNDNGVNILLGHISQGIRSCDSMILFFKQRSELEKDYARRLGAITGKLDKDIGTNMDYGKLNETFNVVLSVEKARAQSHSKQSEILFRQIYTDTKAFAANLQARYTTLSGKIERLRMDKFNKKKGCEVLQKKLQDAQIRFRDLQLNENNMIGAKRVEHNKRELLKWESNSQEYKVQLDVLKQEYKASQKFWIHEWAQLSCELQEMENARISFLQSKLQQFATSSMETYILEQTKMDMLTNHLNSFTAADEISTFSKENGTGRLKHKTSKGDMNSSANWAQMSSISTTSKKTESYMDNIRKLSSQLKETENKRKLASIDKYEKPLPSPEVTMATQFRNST
# Target: T1, GST-Hof1-N-terminus (1–350 aa)
# Assay: pull-down; GST-Hof1 (1-350) (~3 µg) on glutathione beads mixed with ~1 µg 6His-bdSUMO-Gin4-KA1; PBS, 0.2% NP-40, 1 hr at 4°C; washed with PBS, 1% NP-40; western blot with anti-His and anti-GST
# Details: both partners purified
binder,measurement,value
"6His-bdSUMO-Gin4-KA1 (1003–1142 aa) (domain or fragment, S. cerevisiae, UniProt Q12263 1003-1142, looked up, also called 6xHis-bdSUMO-Gin4^KA1; source: E. coli BL21-DE3, purified (Ni-NTA, buffer exchange); not shown: His6, N-terminal, kept; bdSUMO, N-terminal, kept) GSQAKDHSKDHLKEHKQDKNTAIGNGSFFRKFSKSSDKTMELYAKISAKQLFNGLEKLLRGWTQYGLKNIKSHPNNLTLTGKLSSDNIFSLRSTLFEVNIYPRGKMSVVQFKKVSGSFKAVKKLVNEVENVLNKEGVLQK",binding result,binds
